The test system of this data set is Escherichia coli TOP10. In words: shrunken log2 fold change of peptide-encoding DNA abundance (4.5 h post-induction vs induction); higher = less antimicrobial activity (less host growth inhibition). The conditions noted are these: time post-induction: 4.5 h; library: site-saturation at positions 5, 18, 19, 20.
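Also: peptides expressed intracellularly from a pBAD plasmid library in pooled LB shake-flask culture, induced with 0.3% L-arabinose, DNA abundance read by NGS, three biological replicates, DESeq2 with apeglm shrinkage.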

As for RRIRYRPPRLPRPRPRPIRAPRP, the “shrunken log2 fold change” value was 0.0501.

For RRIRIRPPRLPRPRPRPYFVPRP, the “shrunken log2 fold change” value is -0.612.

With RRIRHRPPRLPRPRPRPADIPRP, the “shrunken log2 fold change” value is -0.102.

Take RRIRDRPPRLPRPRPRPSPIPRP: the “shrunken log2 fold change” value came out at 0.0798.

As for RRIRGRPPRLPRPRPRPDDKPRP, the “shrunken log2 fold change” value turned out to be 0.22.

As to RRIRTRPPRLPRPRPRPHHRPRP, the “shrunken log2 fold change” value is -0.655.

As for RRIRCRPPRLPRPRPRPHCYPRP, the “shrunken log2 fold change” value is -0.135.

For RRIRLRPPRLPRPRPRPKMEPRP, the “shrunken log2 fold change” value was -0.0157.

Take RRIRQRPPRLPRPRPRPKGFPRP: the “shrunken log2 fold change” value was -0.219.

Turning to RRIRGRPPRLPRPRPRPVPEPRP, the “shrunken log2 fold change” value came out at 1.98.

Turning to RRIRRRPPRLPRPRPRPGDFPRP, the “shrunken log2 fold change” value is 0.464.

Take RRIRYRPPRLPRPRPRPGYMPRP: the “shrunken log2 fold change” value is -0.716.

RRIRGRPPRLPRPRPRPTPGPRP: the “shrunken log2 fold change” value amounted to 0.971.

Consider RRIRNRPPRLPRPRPRPYCIPRP, for which the “shrunken log2 fold change” value is -0.177.

For RRIRCRPPRLPRPRPRPYEIPRP, the “shrunken log2 fold change” value was -0.00133.

Turning to RRIRRRPPRLPRPRPRPACPPRP, the “shrunken log2 fold change” value came out at 0.353.

In the case of RRIRPRPPRLPRPRPRPEYMPRP, the “shrunken log2 fold change” value was -0.193.

Consider RRIRIRPPRLPRPRPRPVAMPRP, for which the “shrunken log2 fold change” value is -0.0657.

Turning to RRIRIRPPRLPRPRPRPKFSPRP, the “shrunken log2 fold change” value was -0.244.

For the sequence RRIRLRPPRLPRPRPRPRYIPRP, the “shrunken log2 fold change” value is -0.683.

Regarding RRIRRRPPRLPRPRPRPVEGPRP, the “shrunken log2 fold change” value amounted to 0.268.

Turning to RRIRVRPPRLPRPRPRPYIPPRP, the “shrunken log2 fold change” value is -1.

As to RRIRARPPRLPRPRPRPGQPPRP, the “shrunken log2 fold change” value is 0.00358.

As to RRIRWRPPRLPRPRPRPESPPRP, the “shrunken log2 fold change” value is 0.637.

Turning to RRIRVRPPRLPRPRPRPRYYPRP, the “shrunken log2 fold change” value was -0.0159.

In the case of RRIRSRPPRLPRPRPRPMSEPRP, the “shrunken log2 fold change” value is 0.0489.

Take RRIRARPPRLPRPRPRPSNAPRP: the “shrunken log2 fold change” value was 0.133.

RRIRWRPPRLPRPRPRPFKCPRP: the “shrunken log2 fold change” value is -0.127.

Consider RRIRWRPPRLPRPRPRPDKNPRP, for which the “shrunken log2 fold change” value amounted to 0.142.

As to RRIRARPPRLPRPRPRPCRKPRP, the “shrunken log2 fold change” value was -0.232.

Consider RRIRKRPPRLPRPRPRPNGWPRP, for which the “shrunken log2 fold change” value is 0.452.

As for RRIRTRPPRLPRPRPRPKHAPRP, the “shrunken log2 fold change” value came out at 0.0369.

Regarding RRIRGRPPRLPRPRPRPYSWPRP, the “shrunken log2 fold change” value was found to be 0.187.

With RRIRPRPPRLPRPRPRPLMWPRP, the “shrunken log2 fold change” value was 0.432.

As for RRIRTRPPRLPRPRPRPEQGPRP, the “shrunken log2 fold change” value was 0.196.

RRIRDRPPRLPRPRPRPSVEPRP: the “shrunken log2 fold change” value was determined as 1.45.

For RRIRERPPRLPRPRPRPVGWPRP, the “shrunken log2 fold change” value was determined as 0.888.

As to RRIRCRPPRLPRPRPRPQVNPRP, the “shrunken log2 fold change” value is -0.246.

With RRIRVRPPRLPRPRPRPCMQPRP, the “shrunken log2 fold change” value came to 0.162.

On to RRIRRRPPRLPRPRPRPEPCPRP, for which the “shrunken log2 fold change” value is 0.388.

With RRIRFRPPRLPRPRPRPYTCPRP, the “shrunken log2 fold change” value is -0.22.

Regarding RRIRIRPPRLPRPRPRPFHWPRP, the “shrunken log2 fold change” value worked out at 0.0373.

Turning to RRIRWRPPRLPRPRPRPNFMPRP, the “shrunken log2 fold change” value is 0.0497.

In the case of RRIRHRPPRLPRPRPRPAMIPRP, the “shrunken log2 fold change” value is -0.0435.

On to RRIRRRPPRLPRPRPRPHMDPRP, for which the “shrunken log2 fold change” value is -0.265.

As to RRIRGRPPRLPRPRPRPRIAPRP, the “shrunken log2 fold change” value turned out to be 0.519.

Turning to RRIRARPPRLPRPRPRPRFPPRP, the “shrunken log2 fold change” value was found to be 0.421.

As for RRIRRRPPRLPRPRPRPTQCPRP, the “shrunken log2 fold change” value was 0.252.

As for RRIRDRPPRLPRPRPRPRDIPRP, the “shrunken log2 fold change” value is 0.0838.

Take RRIRPRPPRLPRPRPRPICSPRP: the “shrunken log2 fold change” value is -0.014.

Values taken from the supplement of paper PMC9112550, “Optimization of the antimicrobial peptide Bac7 by deep mutational scanning” (BMC Biology, 2022).
